Measurements from PMC10540216, “Activity Guided Azide-methyllysine Photo-trapping for Substrate Profiling of Lysine Demethylases” (Journal of the American Chemical Society, 2023).

B1: DDX21_HUMAN (protein, UniProt Q9NR30 1-783, looked up)
Nucleolar RNA helicase 2: MPGKLRSDAGLESDTAMKKGETLRKQTEEKEKKEKPKSDKTEEIAEEEETVFPKAKQVKKKAEPSEVDMNSPKSKKAKKKEEPSQNDISPKTKSLRKKKEPIEKKVVSSKTKKVTKNEEPSEEEIDAPKPKKMKKEKEMNGETREKSPKLKNGFPHPEPDCNPSEAASEESNSEIEQEIPVEQKEGAFSNFPISEETIKLLKGRGVTFLFPIQAKTFHHVYSGKDLIAQARTGTGKTFSFAIPLIEKLHGELQDRKRGRAPQVLVLAPTRELANQVSKDFSDITKKLSVACFYGGTPYGGQFERMRNGIDILVGTPGRIKDHIQNGKLDLTKLKHVVLDEVDQMLDMGFADQVEEILSVAYKKDSEDNPQTLLFSATCPHWVFNVAKKYMKSTYEQVDLIGKKTQKTAITVEHLAIKCHWTQRAAVIGDVIRVYSGHQGRTIIFCETKKEAQELSQNSAIKQDAQSLHGDIPQKQREITLKGFRNGSFGVLVATNVAARGLDIPEVDLVIQSSPPKDVESYIHRSGRTGRAGRTGVCICFYQHKEEYQLVQVEQKAGIKFKRIGVPSATEIIKASSKDAIRLLDSVPPTAISHFKQSAEKLIEEKGAVEALAAALAHISGATSVDQRSLINSNVGFVTMILQCSIEMPNISYAWKELKEQLGEEIDSKVKGMVFLKGKLGVCFDVPTASVTEIQEKWHDSRRWQLSVATEQPELEGPREGYGGFRGQREGSRGFRGQRDGNRRFRGQREGSRGPRGQRSGGGNKSNRSQNKGQKRSFSKAFGQ
B2: CDC5L_HUMAN (protein, UniProt Q99459 1-802, looked up)
Cell division cycle 5-like …: MPRIMIKGGVWRNTEDEILKAAVMKYGKNQWSRIASLLHRKSAKQCKARWYEWLDPSIKKTEWSREEEEKLLHLAKLMPTQWRTIAPIIGRTAAQCLEHYEFLLDKAAQRDNEEETTDDPRKLKPGEIDPNPETKPARPDPIDMDEDELEMLSEARARLANTQGKKAKRKAREKQLEEARRLAALQKRRELRAAGIEIQKKRKRKRGVDYNAEIPFEKKPALGFYDTSEENYQALDADFRKLRQQDLDGELRSEKEGRDRKKDKQHLKRKKESDLPSAILQTSGVSEFTKKRSKLVLPAPQISDAELQEVVKVGQASEIARQTAEESGITNSASSTLLSEYNVTNNSVALRTPRTPASQDRILQEAQNLMALTNVDTPLKGGLNTPLHESDFSGVTPQRQVVQTPNTVLSTPFRTPSNGAEGLTPRSGTTPKPVINSTPGRTPLRDKLNINPEDGMADYSDPSYVKQMERESREHLRLGLLGLPAPKNDFEIVLPENAEKELEEREIDDTYIEDAADVDARKQAIRDAERVKEMKRMHKAVQKDLPRPSEVNETILRPLNVEPPLTDLQKSEELIKKEMITMLHYDLLHHPYEPSGNKKGKTVGFGTNNSEHITYLEHNPYEKFSKEELKKAQDVLVQEMEVVKQGMSHGELSSEAYNQVWEECYSQVLYLPGQSRYTRANLASKKDRIESLEKRLEINRGHMTTEAKRAAKMEKKMKILLGGYQSRAMGLMKQLNDLWDQIEQAHLELRTFEELKKHEDSAIPRRLECLKEDVQRQQEREKELQHRYADLLLEKETLKSKF
B3: HXK2_HUMAN (protein, UniProt P52789 1-917, looked up)
Hexokinase-2: MIASHLLAYFFTELNHDQVQKVDQYLYHMRLSDETLLEISKRFRKEMEKGLGATTHPTAAVKMLPTFVRSTPDGTEHGEFLALDLGGTNFRVLWVKVTDNGLQKVEMENQIYAIPEDIMRGSGTQLFDHIAECLANFMDKLQIKDKKLPLGFTFSFPCHQTKLDESFLVSWTKGFKSSGVEGRDVVALIRKAIQRRGDFDIDIVAVVNDTVGTMMTCGYDDHNCEIGLIVGTGSNACYMEEMRHIDMVEGDEGRMCINMEWGAFGDDGSLNDIRTEFDQEIDMGSLNPGKQLFEKMISGMYMGELVRLILVKMAKEELLFGGKLSPELLNTGRFETKDISDIEGEKDGIRKAREVLMRLGLDPTQEDCVATHRICQIVSTRSASLCAATLAAVLQRIKENKGEERLRSTIGVDGSVYKKHPHFAKRLHKTVRRLVPGCDVRFLRSEDGSGKGAAMVTAVAYRLADQHRARQKTLEHLQLSHDQLLEVKRRMKVEMERGLSKETHASAPVKMLPTYVCATPDGTEKGDFLALDLGGTNFRVLLVRVRNGKWGGVEMHNKIYAIPQEVMHGTGDELFDHIVQCIADFLEYMGMKGVSLPLGFTFSFPCQQNSLDESILLKWTKGFKASGCEGEDVVTLLKEAIHRREEFDLDVVAVVNDTVGTMMTCGFEDPHCEVGLIVGTGSNACYMEEMRNVELVEGEEGRMCVNMEWGAFGDNGCLDDFRTEFDVAVDELSLNPGKQRFEKMISGMYLGEIVRNILIDFTKRGLLFRGRISERLKTRGIFETKFLSQIESDCLALLQVRAILQHLGLESTCDDSIIVKEVCTVVARRAAQLCGAGMAAVVDRIRENRGLDALKVTVGVDGTLYKLHPHFAKVMHETVKDLAPKCDVSFLQSEDGSGKGAALITAVACRIREAGQR
B4: RPN1_HUMAN (protein, UniProt P04843 24-607, looked up)
Dolichyl-diphosphooligosacchar …: ASSEAPPLINEDVKRTVDLSSHLAKVTAEVVLAHLGGGSTSRATSFLLALEPELEARLAHLGVQVKGEDEEENNLEVRETKIKGKSGRFFTVKLPVALDPGAKISVIVETVYTHVLHPYPTQITQSEKQFVVFEGNHYFYSPYPTKTQTMRVKLASRNVESYTKLGNPTRSEDLLDYGPFRDVPAYSQDTFKVHYENNSPFLTITSMTRVIEVSHWGNIAVEENVDLKHTGAVLKGPFSRYDYQRQPDSGISSIRSFKTILPAAAQDVYYRDEIGNVSTSHLLILDDSVEMEIRPRFPLFGGWKTHYIVGYNLPSYEYLYNLGDQYALKMRFVDHVFDEQVIDSLTVKIILPEGAKNIEIDSPYEISRAPDELHYTYLDTFGRPVIVAYKKNLVEQHIQDIVVHYTFNKVLMLQEPLLVVAAFYILFFTVIIYVRLDFSITKDPAAEARMKVACITEQVLTLVNKRIGLYRHFDETVNRYKQSRDISTLNSGKKSLETEHKALTSEIALLQSRLKTEGSDLCDRVSEMQKLDAQVKELVLKSAVEAERLVAGKLKKDTYIENEKLISGKRQELVTKIDHILDAL
B5: FUS_HUMAN (protein, UniProt P35637 1-526, looked up)
RNA-binding protein FUS: MASNDYTQQATQSYGAYPTQPGQGYSQQSSQPYGQQSYSGYSQSTDTSGYGQSSYSSYGQSQNTGYGTQSTPQGYGSTGGYGSSQSSQSSYGQQSSYPGYGQQPAPSSTSGSYGSSSQSSSYGQPQSGSYSQQPSYGGQQQSYGQQQSYNPPQGYGQQNQYNSSSGGGGGGGGGGNYGQDQSSMSSGGGSGGGYGNQDQSGGGGSGGYGQQDRGGRGRGGSGGGGGGGGGGYNRSSGGYEPRGRGGGRGGRGGMGGSDRGGFNKFGGPRDQGSRHDSEQDNSDNNTIFVQGLGENVTIESVADYFKQIGIIKTNKKTGQPMINLYTDRETGKLKGEATVSFDDPPSAKAAIDWFDGKEFSGNPIKVSFATRRADFNRGGGNGRGGRGRGGPMGRGGYGGGGSGGGGRGGFPSGGGGGGGQQRAGDWKCPNPTCENMNFSWRNECNQCKAPKPDGPGGGPGGSHMGGNYGDDRRGGRGGYDRGGYRGRGGDRGGFRGGRGGGDRGGFGPGKMDSRGEHRQDRRERPY
B6: CPSF6_HUMAN (protein, UniProt Q16630 1-551, looked up)
Cleavage and polyadenylation …: MADGVDHIDIYADVGEEFNQEAEYGGHDQIDLYDDVISPSANNGDAPEDRDYMDTLPPTVGDDVGKGAAPNVVYTYTGKRIALYIGNLTWWTTDEDLTEAVHSLGVNDILEIKFFENRANGQSKGFALVGVGSEASSKKLMDLLPKRELHGQNPVVTPCNKQFLSQFEMQSRKTTQSGQMSGEGKAGPPGGSSRAAFPQGGRGRGRFPGAVPGGDRFPGPAGPGGPPPPFPAGQTPPRPPLGPPGPPGPPGPPPPGQVLPPPLAGPPNRGDRPPPPVLFPGQPFGQPPLGPLPPGPPPPVPGYGPPPGPPPPQQGPPPPPGPFPPRPPGPLGPPLTLAPPPHLPGPPPGAPPPAPHVNPAFFPPPTNSGMPTSDSRGPPPTDPYGRPPPYDRGDYGPPGREMDTARTPLSEAEFEEIMNRNRAISSSAISRAVSDASAGDYGSAIETLVTAISLIKQSKVSADDRCKVLISSLQDCLHGIESKSYGSGSRRERSRERDHSRSREKSRRHKSRSRDRHDDYYRERSRERERHRDRDRDRDRERDREREYRHR

Test system: KDM4A-I71AzF
Test: CASI: photo-crosslinking with HEK293T cell extracts, StrepTactin enrichment and LC-MS/MS proteomics;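 further: lysates from HEK293T cells pretreated with a KDM4 inhibitor to raise proteome methylation, affinity-purified after ±UV, gel-resolved, trypsin-digested, with exclusive unique peptides per protein averaged per condition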
Assay type: binding, human
Conditions: sheet "Final results but with 0.01"

| Molecule | Fold change (+UV/-UV) |
| --- | --- |
| B1 | 1 |
| B2 | 0 |
| B3 | 0.7273 |
| B4 | 3 |
| B5 | 0.5 |
| B6 | 0.875 |
